According to patent US8461305B2, “L-fucose α1→6 specific lectin” (J-Oil Mills, Inc., priority 2008, dated 2013):

What was measured:
[1] = frontal affinity chromatography (FAC), association constant to PA sugar chains having other L-fucose; format: binding; conditions: 25 degrees C.
Outline: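 Lectin coupled via primary amines to NHS-activated sepharose in a miniature column, run in TBS (pH 7.4) at 0.125 ml/min and 25 degrees C. PA sugar chains (3.75 nM or 7.5 nM) applied in excess, with elution monitored by fluorescence (ex 310/em 380 nm). Ka calculated from front-end delay (V−Vo) versus PA rhamnose and effective ligand amount (Bt).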

[2] = hemagglutinating inhibition test with sugars (sugar binding specificity); format: cell-based
Outline: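 Double dilution series of sugars or glycoproteins were preincubated 1 h at room temperature with lectin adjusted to titer 4, then 4% red blood cell suspension was added for a further 1 h at room temperature. The minimum inhibition concentration was taken as the lowest concentration still inhibiting hemagglutination.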

minimum inhibition concentration of hemagglutination ([2]; inhibitor: Fructose): >100 mM
minimum inhibition concentration of hemagglutination ([2]; inhibitor: Galactose): >100 mM
minimum inhibition concentration of hemagglutination ([2]; inhibitor: Glucose): >100 mM
minimum inhibition concentration of hemagglutination ([2]; inhibitor: L-fucose): >100 mM
minimum inhibition concentration of hemagglutination ([2]; inhibitor: Lactose): >6 mM
minimum inhibition concentration of hemagglutination ([2]; inhibitor: Maltose): >100 mM
minimum inhibition concentration of hemagglutination ([2]; inhibitor: Mannose): 50 mM
minimum inhibition concentration of hemagglutination ([2]; inhibitor: Melibiose): >100 mM
minimum inhibition concentration of hemagglutination ([2]; inhibitor: Metyl α-mannoside): 50 mM
minimum inhibition concentration of hemagglutination ([2]; inhibitor: N-Acetylneuraminic acid): >100 mM
minimum inhibition concentration of hemagglutination ([2]; inhibitor: N-acetylgalactosamine): >100 mM
minimum inhibition concentration of hemagglutination ([2]; inhibitor: N-acetylglucosamine): >100 mM
minimum inhibition concentration of hemagglutination ([2]; inhibitor: N-glycolylneuraminic acid): >100 mM
minimum inhibition concentration of hemagglutination ([2]; inhibitor: Raffinose): >100 mM
minimum inhibition concentration of hemagglutination ([2]; inhibitor: Rhamnose): >100 mM
minimum inhibition concentration of hemagglutination ([2]; inhibitor: Serial lactose): >6 mM
minimum inhibition concentration of hemagglutination ([2]; inhibitor: Sucrose): >100 mM
minimum inhibition concentration of hemagglutination ([2]; inhibitor: Xylose): >100 mM
B1: Pisum sativum agglutinin (protein)
chain: TETTSFLITKFSPDQQNLIFQGDGYTTKEKLTLTKAVKNTVGRALYSSPIHIWDRETGNVANFVTSFTFVINAPNSYNVADGFTFFIAPVDTKPQTGGGYLGVFNSAEYDKTTQTVAVEFDTFYNAAWDPSNRDRHIGIDVNSIKSVNTKSWKLQNGEEANVVIAFNAATNVLTVSLTYPNSLEEENVTSYTLSDVVSLKDVVPEWVRIGFSATTGAEYAAHEVLSWSFHSELSGTSSSKQAADA
association constant Ka ([1]; Sugar chain No. 419): <1000 M⁻¹
association constant Ka ([1]; Sugar chain No. 420): <1000 M⁻¹
association constant Ka ([1]; Sugar chain No. 718): <1000 M⁻¹
association constant Ka ([1]; Sugar chain No. 719): <1000 M⁻¹
association constant Ka ([1]; Sugar chain No. 720): <1000 M⁻¹
association constant Ka ([1]; Sugar chain No. 721): <1000 M⁻¹
association constant Ka ([1]; Sugar chain No. 722): <1000 M⁻¹
association constant Ka ([1]; Sugar chain No. 723): <1000 M⁻¹
association constant Ka ([1]; Sugar chain No. 726): <1000 M⁻¹
association constant Ka ([1]; Sugar chain No. 727): <1000 M⁻¹
association constant Ka ([1]; Sugar chain No. 728 (as listed in Table 5/12)): <1000 M⁻¹
association constant Ka ([1]; Sugar chain No. 729): <1000 M⁻¹
association constant Ka ([1]; Sugar chain No. 730): <1000 M⁻¹
association constant Ka ([1]; Sugar chain No. 731): <1000 M⁻¹
association constant Ka ([1]; Sugar chain No. 739): <1000 M⁻¹
association constant Ka ([1]; Sugar chain No. 909): <1000 M⁻¹
association constant Ka ([1]; Sugar chain No. 910): <1000 M⁻¹
association constant Ka ([1]; Sugar chain No. 931): <1000 M⁻¹
association constant Ka ([1]; Sugar chain No. 932): <1000 M⁻¹
association constant Ka ([1]; Sugar chain No. 933): <1000 M⁻¹
